Reference: patent publication US20190062448A1, “ANTI-CD39 ANTIBODIES, COMPOSITIONS COMPRISING ANTI-CD39 ANTIBODIES AND METHODS OF USING ANTI-CD39 ANTIBODIES” (Tizona Therapeutics, priority 2017, published 2019)
Entries after “also recorded” stand apart in the source; their conditions may differ.

Tests used:
[1] = test system: CD39^+CD73^+SK-MEL-28 cells; experiment: Adenosine generation by SK-MEL-28 cells (LC/MS); format: cell-based, human; details: normalized to isotype control (100%) and CD39 KO cells (0%)
Procedure: (§1) The supernatants were analyzed for ATP levels using AmpGlo Kit (A) and for adenosine levels using LC/MS analysis (B). % Adenosine levels were normalized to isotype control (100%) and SK-MEL-28 CD39 KO cells (0%).

[2] = test system: CD39^+CD73^+SK-MEL-28 cells; experiment: Extracellular ATP accumulation in SK-MEL-28 supernatants (AmpGlo Kit); format: cell-based, human; details: 1 hour treatment; 50 μM ATP for 15 min
Procedure: as §1

hCD39-ECD = biological target: T1, hCD39-ECD (Homo sapiens, UniProt P49961); experiment: Epitope binning / competition for hCD39-ECD binding by Bio-Layer Interferometry
T1 sequence (P49961 38-478 limits assumed): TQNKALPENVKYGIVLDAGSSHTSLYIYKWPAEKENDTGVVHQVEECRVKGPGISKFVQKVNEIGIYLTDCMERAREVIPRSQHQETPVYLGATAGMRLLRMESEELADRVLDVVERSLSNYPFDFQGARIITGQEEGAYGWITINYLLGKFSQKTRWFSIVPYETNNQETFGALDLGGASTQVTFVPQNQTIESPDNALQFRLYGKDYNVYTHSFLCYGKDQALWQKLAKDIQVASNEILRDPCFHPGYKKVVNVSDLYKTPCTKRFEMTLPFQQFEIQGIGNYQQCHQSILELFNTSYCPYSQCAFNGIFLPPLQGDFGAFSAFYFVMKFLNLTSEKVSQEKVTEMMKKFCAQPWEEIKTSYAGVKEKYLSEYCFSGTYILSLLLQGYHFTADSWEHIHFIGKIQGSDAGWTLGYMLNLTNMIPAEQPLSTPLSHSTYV
Excerpt: A1 antibody was immobilized onto an Anti-Mouse IgG Fc Capture (AMC) biosensor (ForteBio). Association of hCD39-ECD was then monitored for 180 seconds via Bio-Layer Interferometry (BLI) using the Octet system (ForteBio), at which point the biosensor was dipped into competitor antibody and monitored for another 180 seconds.
The methods are the same as set forth above except that instead of A1, the representative antibody was immobilized using anti-human IgG Fc Capture (AHC) biosensor.
Also, an 18 hour incubation was used with the antibody or isotype control. Finally, an additional 30 second baseline dip in buffer between antigen capture and dipping into a second competitor antibody for 300 seconds was used.

stimulated human PBMCs = experiment: Cytokine secretion by anti-CD3+anti-CD28 stimulated PBMCs (Meso Scale Discovery); format: cell-based; details: 96 hours
Procedure: Supernatants were harvested after 96 hours and cytokines were measured using a Meso Scale Discovery human cytokine kit.
Supernatants were harvested after 96 hours and analyzed by Meso Scale Discovery human cytokine kit.

[3] = biological target: T2, human-mouse CD39 chimeras (Homo sapiens, UniProt P49961, D150A/E143Q/E153S/L144S/N158S/R147E/R154T/S157K/V151A); experiment: Binding to human-mouse CD39 chimeras and point mutants expressed in CHO cells (FACS); details: 15 μg/ml antibody
T2 construct: expressed in transfected cells; host or cells: CHO cells
T2 sequence (P49961 1-510 E143Q/L144S/R147E/D150A/V151A/E153S/R154T/S157K/N158S): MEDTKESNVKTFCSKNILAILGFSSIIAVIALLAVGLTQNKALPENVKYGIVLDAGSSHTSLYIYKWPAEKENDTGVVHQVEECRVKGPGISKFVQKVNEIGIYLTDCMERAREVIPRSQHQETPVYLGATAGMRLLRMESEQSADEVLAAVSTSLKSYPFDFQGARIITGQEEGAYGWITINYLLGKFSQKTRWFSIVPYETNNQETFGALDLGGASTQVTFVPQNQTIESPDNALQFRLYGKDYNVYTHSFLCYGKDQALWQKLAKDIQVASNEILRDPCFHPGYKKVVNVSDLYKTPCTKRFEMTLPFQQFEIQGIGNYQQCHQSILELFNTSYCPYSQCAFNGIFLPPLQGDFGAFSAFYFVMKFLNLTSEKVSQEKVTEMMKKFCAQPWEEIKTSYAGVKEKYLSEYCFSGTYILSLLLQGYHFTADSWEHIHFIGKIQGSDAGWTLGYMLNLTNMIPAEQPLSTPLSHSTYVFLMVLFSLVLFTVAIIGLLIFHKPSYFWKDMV
Procedure: (§2) Chimeras were generated by replacing human CD39 with mouse CD39 sequence in mammalian expression vectors. The chimeras were expressed in CHO cells and the ability of anti-human CD39 antibodies to bind the chimeras tested via FACS. In brief, cells were washed and blocked in FACS buffer (PBS/2% FBS) for 30 min on ice. They were then incubated with 15 μg/ml anti-human CD39 antibodies diluted in FACS buffer×1 h on ice. After 2 washes, cells were incubated with fluorescently labeled anti-human Fc antibodies, anti-mouse Fc antibodies, or anti-mCD39 antibody (R&D Systems 495826) diluted in FACS buffer per manufacturers' instructions×30 min on ice. After 2 washes, cells were resuspended in FACS buffer and analyzed on BD Fortessa. Data was processed with FlowJo. Positive binding was scored as “yes” and lack of binding was scored as “NO” and examples of FACS plots used to generate this table are in FIGS. 14.F and 14.G.
(§3) Chimeras were generated by mutagenesis of Chimera #2 or WT hCD39 expression vectors. Residues for mutagenesis were chosen based on divergence between human and mouse CD39. The chimeras were expressed in CHO cells and the ability of anti-human CD39 antibodies to bind the chimeras tested via FACS, as described in FIG. 14E. Table 2. Positive binding was scored as “Yes” and lack of binding was scored as “No” and examples of FACS plots used to generate this table are in FIGS. 14.F and 14.G.

[4] = test system: human-mouse CD39 chimeras; experiment: as above
Procedure: as §2, §3

[5] = biological target: T3, human-mouse CD39 chimeras (Homo sapiens, UniProt P49961, E276G/I277V/N275G); experiment: as above; details: 15 μg/ml antibody
T3 construct: expressed in transfected cells; host or cells: CHO cells
T3 sequence (P49961 1-510 N275G/E276G/I277V): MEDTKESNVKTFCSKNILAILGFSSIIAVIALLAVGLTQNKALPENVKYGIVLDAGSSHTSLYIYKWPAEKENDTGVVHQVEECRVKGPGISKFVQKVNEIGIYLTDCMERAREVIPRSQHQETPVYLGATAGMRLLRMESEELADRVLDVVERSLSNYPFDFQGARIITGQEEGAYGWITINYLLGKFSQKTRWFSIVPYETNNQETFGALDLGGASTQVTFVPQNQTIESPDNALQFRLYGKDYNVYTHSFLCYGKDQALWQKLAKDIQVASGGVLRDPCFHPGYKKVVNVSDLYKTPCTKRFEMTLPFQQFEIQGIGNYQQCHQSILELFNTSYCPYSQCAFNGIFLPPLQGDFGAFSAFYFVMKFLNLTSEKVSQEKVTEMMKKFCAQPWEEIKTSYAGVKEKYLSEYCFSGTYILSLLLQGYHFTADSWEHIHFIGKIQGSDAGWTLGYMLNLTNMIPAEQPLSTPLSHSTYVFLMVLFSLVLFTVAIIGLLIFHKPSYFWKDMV
Procedure: as §2, §3

[6] = test system: CD4^+ and CD8^+ T cells in stimulated PBMCs; experiment: Proliferation of anti-CD3+anti-CD28 stimulated T cells (Cell Trace Violet); format: cell-based, human; details: 50 μM ATP; 96 hours; vs isotype control
Procedure: Proliferation of CD4^+ and CD8^+ T cells was measured by Cell Trace Violet by flow cytometry.

B1: 31895: inhibitory anti-CD39 antibody, contacts E143-N158 incl. D150 and E153 (antibody, V domains shown)
VH: QVQLVQSGAEVKKPGASVKVSCKASGYTFKSYEMHWVRQAPGQGLEWMGRINPSVGSTWYAQKFQGRVTMTRDTSTSTVYMELSSLRSEDTAVYYCARGKREGGTEYLRKWGQGTLVTVSS
VL: EIVLTQSPGTLSLSPGERATLSCRASQSVASSYLAWYQQKPGQAPRLLIYGASNRHTGIPDRFSGSGSGTDFTLTISRLEPEDFAVYYCQQYHNAITFGGGTKVEIK
modifications: Synthetic VH, 31895; Synthetic VL, 31895
notes: D150 and E153
[1]
  adenosine generation (% of adenosine levels): Reduces Adenosine Generation
[2]
  extracellular ATP accumulation: Increase Extracellular ATP Accumulation
hCD39-ECD
  competition / binning with other anti-CD39 antibody bin groups for ECD binding: do not bin with anti-CD39 antibody bin groups represented by antibodies A1, 27536, or 27549
Stimulated human PBMCs; absence of exogenous ATP
  secretion of INF-γ, TNF-α and IL-2: increases cytokine secretion
Stimulated human PBMCs; fixed concentration of 50 μg/ml, presence of ATP, compared to HAO-391 and HAO mAb4
  release of INF-γ, TNF-α, IL-2 and IL-1β: increased cytokine release by activated PBMCs to a higher degree
Stimulated human PBMCs; presence of exogenous ATP (50 μM)
  secretion of INF-γ, TNF-α and IL-2: increases cytokine secretion
[3]
  binding to Chimera #2 (human E143-N158 replaced by mouse sequence): able to bind all chimeras but Chimera #2; also recorded: inability to recognize Chimera #2
[4]
  binding to Chimera #9,10 (single residues of Chimera #2 reverted to human): restore the ability
  binding to Chimeras #13,14 (two human residues co-mutated to mouse): did not impair binding
[5]
  binding to Chimera #4: able to bind all chimeras but Chimera #2
[6]
  % CD4^+ T cell proliferation: increases proliferation
  % CD8^+ T cell proliferation: increases proliferation
